Experimental findings from PMC9415858 are described below.

As usually defined, the pKd is −log10 of the Kd, conventionally taken in molar units. Higher therefore signals a low Kd.

pKd: −log10 of the molar value. “And” between values parts separate entries of the source, which are not always exact repeats. Identical values can stand only once.

In the assay the target is His-Tagged FcRn (UniProt P55899). As to the kind of experiment: SPR; His-tagged FcRn captured on an anti-His IgG1 antibody CM5 chip; antibody samples as analyte at 15, 5 and 1.66 nM in HBS-EP pH 6.0, 30 µL/min, 22 °C; steady-state model (the same data also fitted with a two-state model); mean of at least 5 measurements.
Sequence of UniProt P55899 (P55899 24-297): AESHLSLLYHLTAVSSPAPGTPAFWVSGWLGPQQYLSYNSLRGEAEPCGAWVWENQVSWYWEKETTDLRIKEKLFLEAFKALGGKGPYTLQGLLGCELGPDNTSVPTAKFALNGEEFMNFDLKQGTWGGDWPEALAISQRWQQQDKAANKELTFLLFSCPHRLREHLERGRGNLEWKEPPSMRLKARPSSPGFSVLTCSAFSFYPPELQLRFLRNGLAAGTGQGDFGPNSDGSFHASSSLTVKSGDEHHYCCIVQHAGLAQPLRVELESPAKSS

As to “Avastin (unfractionated innovator product) (antibody)”, the negative-log Kd (pKd) was 7.60 and 7.64.
